According to patent US20230340151A1 (Pfizer, published 2023):

Experiments:
GUCY2C_ECD Peptide 10 = target: T1, GUCY2C_ECD Peptide 10 (human); experiment: peptide DELFIA ELISA;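 note: epitope mapping using overlapping 20-mer GUCY2C peptides covering residues 1-440, extracellular into transmembrane domain, coated at 20 µg/ml as target antigen and probed with antibodies or GUCY2C-CD3 bispecifics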
T1 peptide: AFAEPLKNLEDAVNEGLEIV

GUCY2C_ECD Peptide 35 = target: T2, GUCY2C_ECD Peptide 35 (human); experiment: peptide DELFIA ELISA;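 note: epitope mapping using overlapping 20-mer GUCY2C peptides covering residues 1-440, extracellular into transmembrane domain, coated at 20 µg/ml as target antigen and probed with antibodies or GUCY2C-CD3 bispecifics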
T2 peptide: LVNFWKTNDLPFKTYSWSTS

GUCY2C_ECD Peptide 74 = target: T3, GUCY2C_ECD Peptide 74 (human); experiment: peptide DELFIA ELISA;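 note: epitope mapping using overlapping 20-mer GUCY2C peptides covering residues 1-440, extracellular into transmembrane domain, coated at 20 µg/ml as target antigen and probed with antibodies or GUCY2C-CD3 bispecifics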
T3 peptide: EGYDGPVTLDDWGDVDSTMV

GUCY2C_ECD Peptide 9 = target: T4, GUCY2C_ECD Peptide 9 (human); experiment: peptide DELFIA ELISA;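 note: epitope mapping using overlapping 20-mer GUCY2C peptides covering residues 1-440, extracellular into transmembrane domain, coated at 20 µg/ml as target antigen and probed with antibodies or GUCY2C-CD3 bispecifics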
T4 peptide: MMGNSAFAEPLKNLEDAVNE

GUCY2C_ECD Peptide 89 = target: T5, GUCY2C_ECD Peptide 89 (human); experiment: peptide DELFIA ELISA
T5 peptide: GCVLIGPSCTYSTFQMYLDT

GUCY2C_ECD Peptide 24 = target: T6, GUCY2C_ECD Peptide 24 (human); experiment: peptide DELFIA ELISA
T6 peptide: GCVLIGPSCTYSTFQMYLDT

GUCY2C_ECD Peptide 79 = target: T7, GUCY2C_ECD Peptide 79 (human); experiment: peptide DELFIA ELISA
T7 peptide: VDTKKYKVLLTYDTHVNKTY

GUCY2C_ECD Peptide 54 = target: T8, GUCY2C_ECD Peptide 54 (human); experiment: peptide DELFIA ELISA
T8 peptide: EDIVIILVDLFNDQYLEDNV

GUCY2C_ECD Peptide 64 = target: T9, GUCY2C_ECD Peptide 64 (human); experiment: peptide DELFIA ELISA
T9 peptide: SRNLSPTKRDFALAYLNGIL

GUCY2C_ECD Peptide 80 = target: T10, GUCY2C_ECD Peptide 80 (human); experiment: peptide DELFIA ELISA
T10 peptide: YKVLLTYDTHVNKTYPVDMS

GUCY2C_ECD Peptide 52 = target: T11, GUCY2C_ECD Peptide 52 (human); experiment: peptide DELFIA ELISA
T11 peptide: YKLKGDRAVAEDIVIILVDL

GUCY2C_ECD Peptide 25 = target: T12, GUCY2C_ECD Peptide 25 (human); experiment: peptide DELFIA ELISA
T12 peptide: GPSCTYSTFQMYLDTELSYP

GUCY2C_ECD Peptide 18 = target: T13, GUCY2C_ECD Peptide 18 (human); experiment: peptide DELFIA ELISA
T13 peptide: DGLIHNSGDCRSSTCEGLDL

GUCY2C_ECD Peptide 41 = target: T14, GUCY2C_ECD Peptide 41 (human); experiment: peptide DELFIA ELISA
T14 peptide: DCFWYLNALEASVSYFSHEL

GUCY2C_ECD Peptide 59 = target: T15, GUCY2C_ECD Peptide 59 (human); experiment: peptide DELFIA ELISA
T15 peptide: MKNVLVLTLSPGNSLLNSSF

GUCY2C_ECD Peptide 26 = target: T16, GUCY2C_ECD Peptide 26 (human); experiment: peptide DELFIA ELISA
T16 peptide: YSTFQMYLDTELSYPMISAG

GUCY2C_ECD Peptide 60 = target: T17, GUCY2C_ECD Peptide 60 (human); experiment: peptide DELFIA ELISA
T17 peptide: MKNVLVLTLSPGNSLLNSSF

GUCY2C_ECD Peptide 73 = target: T18, GUCY2C_ECD Peptide 73 (human); experiment: peptide DELFIA ELISA
T18 peptide: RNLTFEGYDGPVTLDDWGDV

GUCY2C_ECD Peptide 86 = target: T19, GUCY2C_ECD Peptide 86 (human); experiment: peptide DELFIA ELISA
T19 peptide: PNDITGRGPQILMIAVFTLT

GUCY2C_ECD Peptide 61 = target: T20, GUCY2C_ECD Peptide 61 (human); experiment: peptide DELFIA ELISA
T20 peptide: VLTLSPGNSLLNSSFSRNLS

GUCY2C_ECD Peptide 3 = target: T21, GUCY2C_ECD Peptide 3 (human); experiment: peptide DELFIA ELISA
T21 peptide: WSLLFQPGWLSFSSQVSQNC

GUCY2C_ECD Peptide 67 = target: T22, GUCY2C_ECD Peptide 67 (human); experiment: peptide DELFIA ELISA
T22 peptide: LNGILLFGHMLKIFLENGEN

GUCY2C_ECD Peptide 38 = target: T23, GUCY2C_ECD Peptide 38 (human); experiment: peptide DELFIA ELISA
T23 peptide: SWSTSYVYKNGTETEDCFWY

GUCY2C_ECD Peptide 88 = target: T24, GUCY2C_ECD Peptide 88 (human); experiment: peptide DELFIA ELISA
T24 peptide: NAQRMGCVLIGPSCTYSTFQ

GUCY2C_ECD Peptide 71 = target: T25, GUCY2C_ECD Peptide 71 (human); experiment: peptide DELFIA ELISA
T25 peptide: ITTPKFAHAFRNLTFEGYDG

GUCY2C_ECD Peptide 2 = target: T26, GUCY2C_ECD Peptide 2 (human); experiment: peptide DELFIA ELISA
T26 peptide: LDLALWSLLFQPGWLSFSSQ

GUCY2C_ECD Peptide 69 = target: T27, GUCY2C_ECD Peptide 69 (human); experiment: peptide DELFIA ELISA
T27 peptide: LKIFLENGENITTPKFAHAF

GUCY2C_ECD Peptide 62 = target: T28, GUCY2C_ECD Peptide 62 (human); experiment: peptide DELFIA ELISA
T28 peptide: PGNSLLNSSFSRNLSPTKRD

GUCY2C_ECD Peptide 27 = target: T29, GUCY2C_ECD Peptide 27 (human); experiment: peptide DELFIA ELISA
T29 peptide: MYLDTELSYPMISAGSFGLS

GUCY2C_ECD Peptide 36 = target: T30, GUCY2C_ECD Peptide 36 (human); experiment: peptide DELFIA ELISA
T30 peptide: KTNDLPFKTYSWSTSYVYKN

GUCY2C_ECD Peptide 84 = target: T31, GUCY2C_ECD Peptide 84 (human); experiment: peptide DELFIA ELISA
T31 peptide: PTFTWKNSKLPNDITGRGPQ

GUCY2C_ECD Peptide 42 = target: T32, GUCY2C_ECD Peptide 42 (human); experiment: peptide DELFIA ELISA
T32 peptide: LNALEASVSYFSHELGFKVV

GUCY2C_ECD Peptide 68 = target: T33, GUCY2C_ECD Peptide 68 (human); experiment: peptide DELFIA ELISA
T33 peptide: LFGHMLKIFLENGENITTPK

GUCY2C_ECD Peptide 28 = target: T34, GUCY2C_ECD Peptide 28 (human); experiment: peptide DELFIA ELISA
T34 peptide: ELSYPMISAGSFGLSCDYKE

GUCY2C_ECD Peptide 58 = target: T35, GUCY2C_ECD Peptide 58 (human); experiment: peptide DELFIA ELISA
T35 peptide: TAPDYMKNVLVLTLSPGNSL

[1] = target: T36, Human GUCY2C full length (SEQ ID NO: 224), recombinant protein (human, UniProt P25092 24-430, limits assumed); experiment: SPR, GUCY2c directly immobilized, 37 C
T36 construct: also called huGUCY2C; biotinylated human GUCY2c
T36 sequence (P25092 24-430 F281L limits assumed): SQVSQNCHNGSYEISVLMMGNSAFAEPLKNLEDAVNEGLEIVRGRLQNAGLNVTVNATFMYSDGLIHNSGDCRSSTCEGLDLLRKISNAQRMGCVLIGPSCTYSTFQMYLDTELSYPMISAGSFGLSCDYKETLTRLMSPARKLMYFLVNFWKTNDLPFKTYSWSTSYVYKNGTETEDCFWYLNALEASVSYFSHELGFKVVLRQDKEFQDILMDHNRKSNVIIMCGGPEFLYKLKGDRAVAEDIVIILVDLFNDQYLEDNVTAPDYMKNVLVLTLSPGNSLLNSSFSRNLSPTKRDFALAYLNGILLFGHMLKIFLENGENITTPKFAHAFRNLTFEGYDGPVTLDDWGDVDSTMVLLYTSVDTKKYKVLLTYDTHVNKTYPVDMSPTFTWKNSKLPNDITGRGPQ

B1: GUCY2C-1608 (bispecific antibody)
chain 1: DIQLTQSPSSLSASVGDRVTITCRASESVDYYGSSLLQWYQQKPGKAPKLLIYAASKLASGVPSRFSGSGSGTDFTLTISSLQPEDFATYYCQQTRKAYTFGQGTKLEIKGGGSGGGGEVQLVESGGGLVQPGGSLRLSCAASGFTFSDYYMTWVRQAPGKGLEWVAFIRNQARGYTSDHNPSVKGRFTISRDNAKNSLYLQMNSLRAEDTAVYYCARDRPSYYVLDYWGQGTTVTVSSGCPPCPAPEAAGAPSVFLFPPKPKDTLMISRTPEVTCVVVDVSHEDPEVKFNWYVDGVEVHNAKTKPREEQYNSTYRVVSVLTVLHQDWLNGKEYKCKVSNKALPAPIEKTISKAKGQPREPQVCTLPPSREEMTKNQVSLWCLVKGFYPSDIAVEWESNGQPENNYKTTPPVLDSDGSFFLYSKLTVDKSRWQQGNVFSCSVMHEALHNHYTQKSLSLSPG
chain 2: DIQMTQSPSSLSASVGDRVTITCTSSQSLFNVRSQKNYLAWYQQKPGKAPKLLIYWASTRESGVPSRFSGSGSGTDFTLTISSLQPEDFATYYCKQSYDLFTFGGGTKVEIKGGGGSGGGGEVQLVESGGGLVQPGGSLRLSCAASGFTFSSYWMHWVRQAPGKGLEWIGEIKPSNELTNVHEKFKDRFTISVDKAKNSAYLQMNSLRAEDTAVYYCTRTITTTEGYWFFDVWGQGTLVTVSSGCPPCPAPEAAGAPSVFLFPPKPKDTLMISRTPEVTCVVVDVSHEDPEVKFNWYVDGVEVHNAKTKPREEQYNSTYRVVSVLTVLHQDWLNGKEYKCKVSNKALPAPIEKTISKAKGQPREPQVYTLPPCREEMTKNQVSLSCAVKGFYPSDIAVEWESNGQPENNYKTTPPVLDSDGSFFLVSKLTVDKSRWQQGNVFSCSVMHEALHNHYTQKSLSLSPG
notes: also called GUCY2c CD3 bispecific
DELFIA TRF (GUCY2C_ECD Peptide 10): 105
DELFIA TRF (GUCY2C_ECD Peptide 35): 108
DELFIA TRF (GUCY2C_ECD Peptide 74): 100
DELFIA TRF (GUCY2C_ECD Peptide 9): 145
DELFIA TRF (GUCY2C_ECD Peptide 89): 115
DELFIA TRF (GUCY2C_ECD Peptide 24): 119
DELFIA TRF (GUCY2C_ECD Peptide 79): 130
DELFIA TRF (GUCY2C_ECD Peptide 54): 112
DELFIA TRF (GUCY2C_ECD Peptide 64): 116
DELFIA TRF (GUCY2C_ECD Peptide 80): 1470
DELFIA TRF (GUCY2C_ECD Peptide 52): 104
DELFIA TRF (GUCY2C_ECD Peptide 25): 131
DELFIA TRF (GUCY2C_ECD Peptide 18): 126
DELFIA TRF (GUCY2C_ECD Peptide 41): 161
DELFIA TRF (GUCY2C_ECD Peptide 59): 135
DELFIA TRF (GUCY2C_ECD Peptide 26): 104
DELFIA TRF (GUCY2C_ECD Peptide 60): 150
DELFIA TRF (GUCY2C_ECD Peptide 73): 116
DELFIA TRF (GUCY2C_ECD Peptide 86): 110
DELFIA TRF (GUCY2C_ECD Peptide 61): 126
DELFIA TRF (GUCY2C_ECD Peptide 3): 97.8
DELFIA TRF (GUCY2C_ECD Peptide 67): 93.2
DELFIA TRF (GUCY2C_ECD Peptide 38): 110
DELFIA TRF (GUCY2C_ECD Peptide 88): 120
DELFIA TRF (GUCY2C_ECD Peptide 71): 105
DELFIA TRF (GUCY2C_ECD Peptide 2): 106
DELFIA TRF (GUCY2C_ECD Peptide 69): 100
DELFIA TRF (GUCY2C_ECD Peptide 62): 91.2
DELFIA TRF (GUCY2C_ECD Peptide 27): 105
DELFIA TRF (GUCY2C_ECD Peptide 36): 112
DELFIA TRF (GUCY2C_ECD Peptide 84): 133
DELFIA TRF (GUCY2C_ECD Peptide 42): 96.5
DELFIA TRF (GUCY2C_ECD Peptide 68): 73.5
DELFIA TRF (GUCY2C_ECD Peptide 28): 96.8
DELFIA TRF (GUCY2C_ECD Peptide 58): 98.5
Kd [1]: 13.5 nM
koff [1]: 0.00217 s⁻¹
kon [1]: 161000 M⁻¹ s⁻¹
